Binding result and Kd data for 9 molecules are collected here from patent US20050282190, “Modular design and construction of nucleic acid molecules, aptamer-derived nucleic acid constructs, RNA scaffolds, their expression, and methods of use” (published 2005).

The target in one data set is T1, HSF (heat shock factor) (UniProt P22813 P22813:1-691).
T1 sequence: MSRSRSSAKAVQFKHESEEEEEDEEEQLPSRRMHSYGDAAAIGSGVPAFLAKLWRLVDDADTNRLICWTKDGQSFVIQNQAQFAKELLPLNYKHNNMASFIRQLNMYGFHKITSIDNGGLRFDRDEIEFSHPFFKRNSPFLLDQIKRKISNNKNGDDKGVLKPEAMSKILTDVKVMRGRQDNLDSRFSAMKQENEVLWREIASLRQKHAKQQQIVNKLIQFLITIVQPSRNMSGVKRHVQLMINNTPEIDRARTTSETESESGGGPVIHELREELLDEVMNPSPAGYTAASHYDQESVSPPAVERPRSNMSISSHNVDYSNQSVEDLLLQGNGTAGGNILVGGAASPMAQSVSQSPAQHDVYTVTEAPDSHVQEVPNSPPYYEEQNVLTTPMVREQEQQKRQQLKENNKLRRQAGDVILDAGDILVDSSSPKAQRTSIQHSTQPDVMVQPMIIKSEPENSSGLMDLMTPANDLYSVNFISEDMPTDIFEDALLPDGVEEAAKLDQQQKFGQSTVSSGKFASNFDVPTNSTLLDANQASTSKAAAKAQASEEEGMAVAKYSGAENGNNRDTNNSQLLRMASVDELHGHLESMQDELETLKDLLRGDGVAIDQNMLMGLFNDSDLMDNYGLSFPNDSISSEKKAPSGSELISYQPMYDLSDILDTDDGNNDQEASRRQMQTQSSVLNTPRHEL
Kind of data set: EMSA; affinity measured, value only in figure. The note with it: tags: His; three-way junction. (In EMSA bound probe runs differently from free probe, usually more slowly.)

Data set [1] addresses T2, TBP (TATA-binding protein) (UniProt P13393 P13393:1-240).
T2 sequence: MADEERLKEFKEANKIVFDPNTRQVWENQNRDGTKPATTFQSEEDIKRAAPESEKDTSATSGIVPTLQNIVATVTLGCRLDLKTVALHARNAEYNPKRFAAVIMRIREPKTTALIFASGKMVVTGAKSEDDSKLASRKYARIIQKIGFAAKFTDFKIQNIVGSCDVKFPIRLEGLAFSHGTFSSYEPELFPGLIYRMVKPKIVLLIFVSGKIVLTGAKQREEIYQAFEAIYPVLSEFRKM
Kind of data set: filter; AptTBP-101 Kd stated to be similar to that of AptTBP-12 complex; binds DNA-binding surface and competes with TATA-DNA (p252).

Data set [2] addresses T2, TBP (TATA-binding protein). The experiment in a line: filter. The note with it: three-way junction with asymmetric internal loop and apical loop.
The target in data set [3] is T3, Streptavidin (UniProt P22629 P22629:25-183). Kind of data set: original aptamer used as reference in deletion analysis. The note with it: tags: ImmunoPure streptavidin, Pierce; HRP or Texas Red conjugates in immunoassays; chain copies: 4.
T3 sequence (P22629 25-183, one chain of several): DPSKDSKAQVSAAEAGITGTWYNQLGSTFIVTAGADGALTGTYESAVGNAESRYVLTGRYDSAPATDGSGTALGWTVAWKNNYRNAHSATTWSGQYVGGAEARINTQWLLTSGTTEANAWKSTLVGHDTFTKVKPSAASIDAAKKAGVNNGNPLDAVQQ
For data set [4], the target named is T3, Streptavidin. Kind of data set: streptavidin conjugates as secondary reagent in Western, dot blot and immunofluorescence. The note with it: tags: ImmunoPure streptavidin, Pierce; HRP or Texas Red conjugates in immunoassays; chain copies: 4; two fused three-way junctions, two BBS and two S1 aptamers.
Data set [5] deals with T4, B52 RRMs (two RNA recognition motifs) (UniProt P26686 P26686:4-188). Kind of data set: Western blot and dot blot; as low as 1 ng protein detected. The note with it: tags: His; two fused three-way junctions, two BBS and two S1 aptamers. The procedure: (§1) Western blot analysis for antibodies was performed according to a standard protocol (Harlow et al., Using Antibodies: A Laboratory Manual. Cold Spring Harbor, Cold Spring Harbor Laboratory Press (1999), which is hereby incorporated by reference in its entirety). For the aptabodies, proteins were separated on 8% SDS-PAGE and transferred to nitrocellulose membrane according to the aforementioned standard protocol. Subsequent steps were also identical except the following substitutions. The RNA aptabody B-S (FIG. 5A) (10 μg/ml) and horseradish peroxidase conjugated streptavidin (1 μg/ml) were used to replace the primary and secondary antibodies. […]
T4 sequence (P26686 other isoform, or with tags, fused parts or gaps): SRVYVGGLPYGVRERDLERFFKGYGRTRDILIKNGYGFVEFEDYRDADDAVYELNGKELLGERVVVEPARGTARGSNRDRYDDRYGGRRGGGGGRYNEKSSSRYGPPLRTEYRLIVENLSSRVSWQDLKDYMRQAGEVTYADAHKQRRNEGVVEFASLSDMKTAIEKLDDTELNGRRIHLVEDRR
(§2) First, a Western blot analysis was conducted with the aptabodies and a monoclonal antibody against B52. The sample to be analyzed contained a full-length B52 produced from a baculovirus expression system, a His-tagged B52 deletion construct that contained the two RNA recognition motifs recognized by the aptamers and the monoclonal antibody By32 (Champlin et al., “Characterization of a Drosophila Protein Associated with Boundaries of Transcriptionally Active Chromatin,” Genes and Development 5:1611-1621 (1991), which is hereby incorporated by reference in its entirety), and a His-tagged Drosophila heat shock factor as control. […]
Background: In western blotting, separated proteins are transferred to a membrane and probed.

For data set [6], the target named is T5, B52 (SR protein), full-length (UniProt P26686 P26686:2-350). The experiment in a line: Western blot with HRP-streptavidin; 15 mM MgCl2. The note with it: tags: baculovirus expressed; two fused three-way junctions, two BBS and two S1 aptamers. As for the experimental part:
as §1, §2

In data set [7] the target is T2, TBP (TATA-binding protein). Kind of data set: reduced form fully retained binding; used to mask DNA-binding surface of TBP.
Data set [8] addresses T3, Streptavidin. The experiment in a line: EMSA; reduced S1 retains full activity. The note with it: tags: ImmunoPure streptavidin, Pierce; HRP or Texas Red conjugates in immunoassays; chain copies: 4. As for the experimental part: All binding assays were performed in 20 μl volume. The binding buffer contains 50 mM Tris-Cl (pH 7.4), 100 mM NaCl, 15 mM MgCl₂, 10% glycerol, and 1 mM DTT. A typical binding assay using labeled RNA contains about 20 fmole of ³²P-labeled RNA probe and different amounts (1-10 pmole, indicated by L and H in FIG. 5B) of protein or non-labled RNA. The reactions were allowed to equilibrate for 15-20 minutes at ambient temperature before being subjected to EMSA.
For BBS-B52 interaction, EMS assay was performed at 4° C. The binding reaction mixtures were set at 4° C. for 5-10 minutes before being loaded onto a 2.5% agarose gel in ¼ TBE buffer. For the streptavidin aptamers and the TAR aptamers, EMSA were performed at ambient temperature with 6% or 12% native polyacrylamide gel run in TG buffer (25 mM Tris base, 200 mM glycine, and 5 mM MgCl₂).

In data set [9] the target is T4, B52 RRMs (two RNA recognition motifs). Kind of data set: Western blot with B-R then T-S then HRP-streptavidin. The note with it: tags: His; two fused three-way junctions, two BBS and two R-06 modules. As for the experimental part:
as §1, §2

The target of data set [10] is T5, B52 (SR protein), full-length. Described as above. The note with it: tags: baculovirus expressed; two fused three-way junctions, two BBS and two R-06 modules. As for the experimental part:
as §1, §2

In data set [11] the target is T3, Streptavidin. Kind of data set: T-S secondary aptabody detected by HRP-streptavidin. The note with it: tags: ImmunoPure streptavidin, Pierce; HRP or Texas Red conjugates in immunoassays; chain copies: 4; two fused three-way junctions, two TAR-Mal and two S1 modules. The procedure: as §1, §2

T5 sequence (P26686 other isoform, or with tags, fused parts or gaps): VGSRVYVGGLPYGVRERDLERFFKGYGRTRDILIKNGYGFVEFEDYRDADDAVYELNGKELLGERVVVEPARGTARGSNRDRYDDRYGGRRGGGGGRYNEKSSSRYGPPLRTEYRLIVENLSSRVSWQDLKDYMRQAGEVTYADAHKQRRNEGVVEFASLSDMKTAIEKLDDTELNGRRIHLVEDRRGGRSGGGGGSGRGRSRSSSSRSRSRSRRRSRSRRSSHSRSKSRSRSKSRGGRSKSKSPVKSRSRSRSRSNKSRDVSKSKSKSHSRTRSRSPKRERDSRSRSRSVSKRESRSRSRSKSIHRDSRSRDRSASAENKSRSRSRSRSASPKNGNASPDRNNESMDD

B1: RA1-HSF (ssRNA)
RNA: GGGAGAAUUCAACUGCCAUCUAGGCAUCGCGAUACAAAAUUAAGUUGAACGCGAGUUCUCCAUCUAGUACUACAAGCUUCUGGACUCGGU
As for B1, the binding result with HSF (heat shock factor) was “binds”.

B2: AptTBP-12 (ssRNA)
RNA: GGGAGAAUUCAACUGCCAUCUAGGCGCCGUGCCCGGUUUGGAUAGGCACAUAAGACGCCGACAAAGAAACCAACCAGUACUACAAGCUUCUGGACUCGGU
By Kd is commonly meant the constant that tells how readily two partners part at equilibrium. High values mean lower affinity, low ones higher affinity. B2 had a Kd in [1] of around 2 nM.

B3: AptTBP-101 (ssRNA)
RNA: GGGAGAAUUCAACUGCCAUCUAGGCAGCCAAGGUAAACAAUUCAGUUAGUGGAAUGAAACUGCCCAACACCAGAAGUACUACAAGCUUCUGGACUCGGU
On to B3, for which, in data set [2], the Kd came to 2 nM. This lies in the single-digit nanomolar range.

B4: S1 (ssRNA)
RNA: GGGAGUCGACCGACCAGAAUCAUGCAAGUGCGUAAGAUAGUCGCGGGCCGGGGGCGUAUUAUGUGCGUCUACAUCUAGACUCAU
For the molecule B4, in the data set with Streptavidin [3], the binding result is recorded as “binds”.

B5: aptabody B-S (ssRNA)
RNA: GGGAUCGCCGCGGCUGGUCAACCAGGCGACCGCCGCGGCCACAGCGGUGGGCUGGUCAACCAGGCGACCGCCCACCAGCGUUCCCGGAUCCGUGACCGACCAGAAUCAUGCAAGUGCGUAAGAUAGUCGCGGGUCGGGUCAUACUCCCGGCCAGAAUCAUGCAAGUGCGUAAGAUAGUCGCGGGCCGGGAGGCGGAUUC
Regarding B5, the binding result (with Streptavidin [4]; in data set [5]; in [6]) was “binds” throughout. GGCGCCGUGCCCGGUUUGGAUAGGCACAUAAGACGCC (ssRNA) [m12 (mini AptTBP-12)]: the binding result in data set [7] is given as “binds”. As for GGGACCGACCAGAAUCAUGCAAGUGCGUAAGAUAGUCGCGGGCCGGG (ssRNA) [S1 con], in the data set with Streptavidin [8], the binding result is on record as “binds”.

B6: aptabody B-R (ssRNA)
RNA: GGGAUCGCCGCGGCUGGUCAACCAGGCGACCGCCGCGGCCACAGCGGUGGGCUGGUCAACCAGGCGACCGCCCACCAGCGUUCCCGGAUCCGUGACGUCAACACGGUCCCGGACGUGUUGACGUCCAUACUCCUCAACACGGUCCCGGACGUGUUGAGGAGGCGGAUUC
As to B6, the binding result in data set [9] and in data set [10] was “binds” in each case.

B7: aptabody T-S (ssRNA)
RNA: GGGAUCGCCGCCGAGCCCGGGAGCUCGGCGGCCACAGCGGUGGGAGCCCGGGAGCUCCCACCAGCGUUCCCGGAUCCGUGACCGACCAGAAUCAUGCAAGUGCGUAAGAUAGUCGCGGGUCGGGUCAUACUCCCGGCCAGAAUCAUGCAAGUGCGUAAGAUAGUCGCGGGCCGGGAGGCGGAUUC
As to B7, the binding result in the data set with Streptavidin [11] is “binds”.
